Measurements from publication PMC6605747.

B1: Flag-tagged mouse CXCR4 C-terminally fused via a TEV protease cleavage site to tTA [mouse] / Myc-tagged COMMD8 C-terminally fused to TEV protease [not stated (mouse cDNA cloned for the MSCV2.2 vectors)] (parent)
chain 1: MEPEEGTPLWRLQKLPPEQGAGLLHKIIDGFCGRAYPAHQDYHSVWNSAEWKHVLEDVTTFFKAVVGKNFSEEETLQQLNQLNSCHQEAVLKCLKSRRNEIKQALLGEIVDISCAQLQDFDWQLKLALSSDKIATLQMPLLNLHLDVKEDDKVKPYTVEMSKEELQSLISSLEAANKVVLQLK
chain 2: MEPISVSIYTSDNYSEEVGSGDYDSNKEPCFRDENVHFNRIFLPTIYFIIFLTGIVGNGLVILVMGYQKKLRSMTDKYRLHLSVADLLFVITLPFWAVDAMADWYFGKFLCKAVHIIYTVNLYSSVLILAFISLDRYLAIVHATNSQRPRKLLAEKAVYVGVWIPALLLTIPDFIFADVSQGDISQGDDRYICDRLYPDSLWMVVFQFQHIMVGLILPGIVILSCYCIIISKLSHSKGHQKRKALKTTVILILAFFACWLPYYVGISIDSFILLGVIKQGCDFESIVHKWISITEALAFFHCCLNPILYAFLGAKFKSSAQHALNSMSRGSSLKILSKGKRGGHSSVSTESESSSFHSS

Variants of: B1
Assay: Tango assay
Details: with Myc-tagged COMMD8 C-terminally fused to TEV protease [not stated (mouse cDNA cloned for the MSCV2.2 vectors)]; HTL cells; firefly luciferase normalized to Renilla luciferase, fold increase over unstimulated cells; read off a plot
Work on chain 2 MEPISVSIYTSDNYSEEVGSGDYDSNKEPCFRDENVHFNRIFLPTIYFIIFLTGIVGNGLVILVMGYQKKLRSMTDKYRLHLSVADLLFVITLPFWAVDAMADWYFGKFLCKAVHIIYTVNLYSSVLILAFISLDRYLAIVHATNSQRPRKLLAEKAVYVGVWIPALLLTIPDFIFADVSQGDISQGDDRYICDRLYPDSLWMVVFQFQHIMVGLILPGIVILSCYCIIISKLSHSKGHQKRKALKTTVILILAFFACWLPYYVGISIDSFILLGVIKQGCDFESIVHKWISITEALAFFHCCLNPILYAFLGAKFKSSAQHALNSMSRGSSLKILSKGKRGGHSSVSTESEAAAFHSS [chain 2 S353A S354A S355A] yielded a response (fold increase) of 0.87.
